Like-named read-outs stand apart in the source and are kept apart here. Where no end group is shown, it is not given here. [ ]: non-standard residue; d: D form. The star is where a group is joined. Acetyl(2-(4-imidazolyl)) = O=C(Cc1c[nH]cn1)*
Assays:
Assay in all cases: cell-based or functional assay
[1] = molecular target: human glucagon receptor (human) (UniProt P47871)
[2] = molecular target: human GLP-1 receptor (human) (UniProt P43220)
[3] = molecular target: human glucagon receptor (human) (UniProt P47871); remark: listed apart in the source

Chain of human glucagon receptor (human) (P47871 26-477): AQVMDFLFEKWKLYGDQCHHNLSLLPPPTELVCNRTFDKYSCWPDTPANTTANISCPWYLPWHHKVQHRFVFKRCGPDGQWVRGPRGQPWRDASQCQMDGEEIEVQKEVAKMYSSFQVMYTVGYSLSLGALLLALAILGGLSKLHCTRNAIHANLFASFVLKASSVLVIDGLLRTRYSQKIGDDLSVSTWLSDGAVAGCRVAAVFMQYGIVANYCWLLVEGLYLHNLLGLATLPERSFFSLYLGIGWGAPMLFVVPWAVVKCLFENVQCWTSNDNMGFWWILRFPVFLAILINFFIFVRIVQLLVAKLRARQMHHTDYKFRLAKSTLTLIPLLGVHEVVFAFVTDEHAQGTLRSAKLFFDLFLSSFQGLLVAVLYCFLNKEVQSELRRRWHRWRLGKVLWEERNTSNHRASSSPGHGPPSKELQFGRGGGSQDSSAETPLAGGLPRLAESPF
Chain of human GLP-1 receptor (human) (P43220 24-463): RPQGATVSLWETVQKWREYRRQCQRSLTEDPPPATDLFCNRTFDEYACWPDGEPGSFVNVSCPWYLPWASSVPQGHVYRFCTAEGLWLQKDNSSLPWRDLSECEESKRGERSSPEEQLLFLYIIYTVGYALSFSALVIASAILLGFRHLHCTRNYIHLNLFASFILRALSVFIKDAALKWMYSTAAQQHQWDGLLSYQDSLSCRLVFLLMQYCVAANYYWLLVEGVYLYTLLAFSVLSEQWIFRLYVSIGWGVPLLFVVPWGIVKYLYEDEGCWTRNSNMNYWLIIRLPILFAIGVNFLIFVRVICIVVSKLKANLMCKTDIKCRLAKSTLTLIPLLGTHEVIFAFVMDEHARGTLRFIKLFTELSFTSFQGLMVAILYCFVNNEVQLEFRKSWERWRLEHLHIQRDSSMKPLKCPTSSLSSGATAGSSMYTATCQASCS

Molecule	EC50 (nM), cAMP in CHO/GCGR [1] [nM]	EC50 (nM), cAMP in CHO/GLP-1R [2] [nM]	EC50 (nM), cAMP in CHO/GCGR [3] [nM]
GLP-1 (from UniProt P01275 92-128) (ligand)	> 1000	–	–
[Acetyl(2-(4-imidazolyl))]SQGTFTSDYSRYLDEEAVRLFIEWIRNGGPSSGAPPPSK [oxyntomodulin derivative (SEQ ID NO. 18)]	–	96.3	> 1000
[Acetyl(2-(4-imidazolyl))]SQGTFTSDYSKYLDERRAQDFVAWLKNTGPSSGAPPPS [oxyntomodulin derivative (SEQ ID NO. 3)]	–	> 1000	638
[Acetyl(2-(4-imidazolyl))]SQGTFTSDLSRQLEEEAVRLFIEWLMNK [oxyntomodulin derivative (SEQ ID NO. 8)]	–	420	> 1000
